Measurements published in paper PMC10975748 (2024).

Molecular target: Kv1.2 (Homo sapiens, UniProt P16389)
Assay: patch-clamp electrophysiology

Kv1.2, sequence (P16389 whole entry): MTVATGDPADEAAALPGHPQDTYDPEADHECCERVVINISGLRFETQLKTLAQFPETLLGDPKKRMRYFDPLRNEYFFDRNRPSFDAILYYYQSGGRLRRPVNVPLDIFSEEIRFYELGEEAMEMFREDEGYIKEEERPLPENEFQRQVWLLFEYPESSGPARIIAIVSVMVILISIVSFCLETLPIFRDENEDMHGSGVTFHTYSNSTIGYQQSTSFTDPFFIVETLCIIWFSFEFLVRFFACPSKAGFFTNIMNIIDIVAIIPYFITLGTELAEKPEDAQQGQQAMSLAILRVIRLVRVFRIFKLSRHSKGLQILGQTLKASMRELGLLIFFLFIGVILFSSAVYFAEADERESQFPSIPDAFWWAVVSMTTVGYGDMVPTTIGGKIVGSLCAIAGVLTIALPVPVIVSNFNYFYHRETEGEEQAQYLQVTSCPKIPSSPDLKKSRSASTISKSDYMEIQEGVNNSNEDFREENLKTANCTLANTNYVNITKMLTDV

B1: Cm39 (peptide)
chain: TFINHKCKSSSECLPACKAAIGRASGKCINSTCKCYY
In the case of B1, the Kd is reported as 65 nM.
